# Measurements: US12162934B2, “Gremlin-1 antagonist for the prevention and treatment of cancer” (UCB BIOPHARMA SRL, priority 2018, dated 2024)
# Tests used:
# Assay type in all cases: cell-based
# [1] = target: T1, BMP4/7-Gremlin-1 complexes (Homo sapiens, UniProt O60565); assay: SMAD phosphorylation assay: displacement of BMP4/7 from Gremlin 1-BMP complexes; conditions: BMP4/7 50 ng/ml
# T1 sequence (O60565 25-184): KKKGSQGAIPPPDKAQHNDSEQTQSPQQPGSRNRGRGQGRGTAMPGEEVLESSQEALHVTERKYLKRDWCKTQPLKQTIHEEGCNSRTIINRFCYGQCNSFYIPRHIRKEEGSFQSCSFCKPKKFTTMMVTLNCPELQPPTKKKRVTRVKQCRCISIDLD
# Experimental: (§1) Experiments were again performed using lung fibroblasts from idiopathic pulmonary fibrosis patients. rhBMP-2 or rhBMP 4/7 were preincubated with rhGremlin-1 for 1 hour at room temperature. The BMP-2- or BMP4/7-Gremlin-1 complexes were incubated with different concentrations of the anti-Gremlin-1 antibodies overnight at 4° C. Antibody concentrations represent the final concentration on the plate.
# [2] = test system: mouse intestinal crypts; assay: Mouse intestinal organoid culture; conditions: 1 mg/ml antibody added to fully supplemented EGR media
# From the text: Culture of mouse intestinal crypts. Mouse intestinal crypts were isolated and cultured as described by Sato et al (6). In brief, crypts were isolated, resuspended in Matrigel (BD Biosciences) and plated out in 24-well plates. The basal culture medium (advanced Dulbecco's modified Eagle medium/F12 supplemented with penicillin/streptomycin, 10 mmol/L HEPES, Glutamax, 1×N2, 1×B27 (all from Invitrogen), and 1 mmol/L N-acetylcysteine (Sigma)) was overlaid containing the following growth factors; Epidermal Growth Factor at 50 ng/ml (Life Technologies), Gremlin1 at 100 ng/ml (R and D), R-spondin1 at 500 ng/ml (R and D) [EGR media]. Anti-Grem1 antibody (UCB) was used at a concentration of 1 mg/ml. The media was changed every two days.
# A mouse organoid culture was used to assess effects of an anti-GREM1 antibody. Successful intestinal epithelial organoid culture is dependent on media supplementation of exogenous BMP antagonist.
# Approximately 60% of crypts formed organoids in media fully supplemented with recombinant epidermal growth factor (E), Grem1 (G) and R-Spondin1, (R) (EGR media). Culture success rate dropped to less than 2% at 7 days in media lacking recombinant Grem1 (ER media).
# [3] = target: T2, human Gremlin (Homo sapiens, UniProt O60565); assay: Hek-Id1 reporter gene assay: anti-Gremlin-1 antibodies restoring BMP signalling blocked by human Gremlin; conditions: 10-fold excess and 80% inhibition Gremlin-1 concentration
# T2 sequence (O60565 25-184): T1 sequence (O60565 25-184)
# From the text: The Hek Id1 reporter gene assay uses Clone 12 Hek293-Id1 reporter cells. This cell line was stably transfected with Id1 transcription factor. Id1 is a transcription factor in the BMP signalling pathway. Gremlin is known to bind BMPs prevent binding to their receptors reducing the luciferase signal from the reporter gene. Therefore, using this reporter assay, it is possible to screen anti-Gremlin antibodies and see if there are any that block the interaction of Gremlin with BMPs. A restoration of the luciferase signal is seen in these cells if there is a blocking of this interaction.
# Clone 12 cells were cultured in DMEM containing 10% FCS, 1× L-Glutamine & 1× NEAA. […]
# The cells were washed in PBS, lifted off using cell dissociation buffer, spun and counted before being seeded at 5×10^4/well in 70 μl (Density of 7.14×10^5/ml). […]
# Post incubation, 30 μl of sample was transferred per well of assay plate and incubated for 20-24 hours before measuring luminescence signal.
# Cell Steady Glo was thawed in advance at room temperature. […] Luciferase signal was detected by addition of cell steady glo reagent (100 μl) for 20 minutes on shaker at room temperature and measuring luminescence using cell titre glo protocol on Synergy 2. […]
# The percentage of inhibition from dose response assays was calculated based on the maximum and minimum signals in the assay and the data fitted using 4 parameter logistical fit. […]
# [4] = target: T3, BMP-2-Gremlin-1 complexes (Homo sapiens, UniProt O60565); assay: SMAD phosphorylation assay: displacement of BMP-2 from Gremlin 1-BMP complexes; conditions: for Displacement of BMP-2 from Gremlin 1-BMP complexes (SMAD phosphorylation): BMP 2 50 ng/ml
# T3 sequence (O60565 25-184): T1 sequence (O60565 25-184)
# Experimental: as §1
substance,measurement,setting,value
Ab7326: allosteric inhibitory anti-Gremlin-1 antibody from a naïve human library; CDRs SEQ ID NOS 4 to 9; mouse IgG1 in mouse experiments,Displacement of BMP4/7 from Gremlin 1-BMP complexes (SMAD phosphorylation),[1]; antibody 0.63 μg/ml,102.0%
same,Displacement of BMP4/7 from Gremlin 1-BMP complexes (SMAD phosphorylation),[1]; antibody 1.27 μg/ml,111.1%
same,Displacement of BMP4/7 from Gremlin 1-BMP complexes (SMAD phosphorylation),[1]; antibody 2.55 μg/ml,120.9%
same,Displacement of BMP4/7 from Gremlin 1-BMP complexes (SMAD phosphorylation),[1]; antibody 5.1 μg/ml,121.4%
same,Displacement of BMP4/7 from Gremlin 1-BMP complexes (SMAD phosphorylation),[1]; antibody 10.2 μg/ml,125.6%
same,Displacement of BMP4/7 from Gremlin 1-BMP complexes (SMAD phosphorylation),[1]; antibody 20.3 μg/ml,130.3%
same,Displacement of BMP4/7 from Gremlin 1-BMP complexes (SMAD phosphorylation),[1]; antibody 40.6 μg/ml,132.3%
same,Displacement of BMP4/7 from Gremlin 1-BMP complexes (SMAD phosphorylation),[1]; antibody 81.3 μg/ml,133.7%
same,Intestinal organoid culture success,[2],prevented successful intestinal organoid culture
same,Blocking ability in the Hek-Id1 reporter gene assay,[3],maintained blocking ability
same,Displacement of BMP-2 from Gremlin 1-BMP complexes (SMAD phosphorylation),[4]; antibody 0.63 μg/ml,97.0%
same,Displacement of BMP-2 from Gremlin 1-BMP complexes (SMAD phosphorylation),[4]; antibody 1.27 μg/ml,102.8%
same,Displacement of BMP-2 from Gremlin 1-BMP complexes (SMAD phosphorylation),[4]; antibody 2.55 μg/ml,103.2%
same,Displacement of BMP-2 from Gremlin 1-BMP complexes (SMAD phosphorylation),[4]; antibody 5.1 μg/ml,100.3%
same,Displacement of BMP-2 from Gremlin 1-BMP complexes (SMAD phosphorylation),[4]; antibody 10.2 μg/ml,103.8%
same,Displacement of BMP-2 from Gremlin 1-BMP complexes (SMAD phosphorylation),[4]; antibody 20.3 μg/ml,99.4%
same,Displacement of BMP-2 from Gremlin 1-BMP complexes (SMAD phosphorylation),[4]; antibody 40.6 μg/ml,101.5%
same,Displacement of BMP-2 from Gremlin 1-BMP complexes (SMAD phosphorylation),[4]; antibody 81.3 μg/ml,103.7%
same,Displacement of already complexed BMP from Gremlin 1-BMP complexes,"[4]; BMP-2 or BMP4/7, at much lower concentrations than comparison antibody 2484",can displace already complexed BMP-2 or BMP4/7
